This note sets out measurements from publication PMC4211736.

“And” between values parts separate entries of the source, which are not always exact repeats. Equal entries are not always repeated.

Experiment [1] concerns the target G29K/A30K(3xK)-APP695wt. Put plainly: SDS-PAGE and Western blot (SDS-stable dimer); CHO cells lysed in RIPA buffer (0.1% SDS); 3-8% Tris-Acetate gel; blot probed with anti-APP C-terminal antibody A8717.
For experiment [2], the target named is recombinant 3xK-C100Flag. Put plainly: SDS-PAGE, Coomassie stain and Western blot (SDS-stable multimers); recombinant protein run on 4-12% Bis-Tris gels; monomer, dimer and trimer bands cut out, eluted in 150 mM sodium citrate pH 6.8 and rerun; Coomassie stain and blot (6E10, Ab5). A general note: Immunoblotting shows a protein as a band on a membrane.
Experiment [3] has as its target recombinant WT-C100Flag. Described as above.

Chain of recombinant WT-C100Flag (P05067 18-701): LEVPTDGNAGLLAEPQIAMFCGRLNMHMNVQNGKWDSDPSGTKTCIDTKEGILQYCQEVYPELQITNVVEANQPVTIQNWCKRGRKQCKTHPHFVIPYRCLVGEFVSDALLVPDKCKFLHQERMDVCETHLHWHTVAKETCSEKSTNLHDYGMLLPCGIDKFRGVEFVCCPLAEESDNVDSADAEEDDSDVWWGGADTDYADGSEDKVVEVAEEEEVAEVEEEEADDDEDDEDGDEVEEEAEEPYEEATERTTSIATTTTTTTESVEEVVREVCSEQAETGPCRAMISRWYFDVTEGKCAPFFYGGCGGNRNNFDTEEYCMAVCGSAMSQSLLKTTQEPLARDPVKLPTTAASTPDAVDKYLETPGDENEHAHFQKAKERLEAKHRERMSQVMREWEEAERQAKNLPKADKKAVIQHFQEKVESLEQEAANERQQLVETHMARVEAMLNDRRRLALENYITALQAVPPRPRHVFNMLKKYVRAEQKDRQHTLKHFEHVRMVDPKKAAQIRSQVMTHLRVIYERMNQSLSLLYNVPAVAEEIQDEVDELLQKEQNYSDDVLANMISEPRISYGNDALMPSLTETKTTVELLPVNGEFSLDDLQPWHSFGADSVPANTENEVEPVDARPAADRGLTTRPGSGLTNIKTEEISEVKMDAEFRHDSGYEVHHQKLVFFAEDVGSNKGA

Take “G29K/A30K(3xK)-APP695wt (natural protein)”: the stoichiometry N (as a rule, a count of units in the complex or per binding partner) in experiment [1] worked out at 2.

As for “recombinant 3xK-C100Flag (domain or fragment)”, the stoichiometry N in experiment [2] is 2 and 3.

For the substance “recombinant WT-C100Flag (domain or fragment)”, in experiment [3], the stoichiometry N is 2 and 3.
